The RNAGym collection of RNA variant scans (doi:10.1093/molbev/msab373)

B1: Azoarcus group I ribozyme (parent)
chain: GUGCCUUGCGCCGGGAAACCACGCAAGGGAUGGUGUCAAAUUCGGCGAAACCUAAGCGCCCGCCCGGGCGUAUGGCAACGCCGAGCCAAGCUUCGGCGCCUGCGCCGAUGAAGGUGUAGAGACUAGACGGCACCCACCUAAGGCAAACGCUAUGGUGAAGGCAUAGUCCAGGGAGUGGCGAAAGUCACACAAACCGG

Variants of: B1
Experiment: reverse-splicing fitness (ratio to wild type); higher = more active; in vitro selection; Mg2+ level not given
Outline: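 An in vitro group I ribozyme library with randomized positions was T7-transcribed and gel-purified. In triplicate, 10 pmol RNA in EPPS pH 7.5 was reacted with 50 pmoles of a 30-nt RNA substrate for 1 h at 37 °C across several added MgCl2 levels (1–48 mM), then stopped with EDTA. Products were reverse transcribed from a substrate-complementary primer, PCR-amplified and sequenced (HiSeq 4000). Fitness is a variant's read proportion after selection over that before, normalised to wild type.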

Variant | reverse-splicing fitness
GUGCCUUGCGCCGGGAAACCACGCAAGGGAUGGUGUCAAAUUCGGCGAAACCUAAGCGCCCGCCCGGGCGUAUGGCAACGCGGAGCCAAGCUUCGGCGCCUGCGCCGAUGCAGGUGUAGUGACUAGACGGCACCCACCUAAGGCCAACGUUAUGGUGAAGGCAUAGUCAAGGGAGCGGCGAAAGUCACACAAACCGG | 0.0022
GUGCCUUGCGCCGGGAAACCACGCAAGGGAUGGUGUCAAAUUCGGCGAAACCUAAGCGCCCGCCCGGGCGUAUGGCAACGCGGAGCCAAGCUUCGGCGCCUGCGCCGAUGCAGGUGUAGUGACUAGACGGCACCCACCUAAGGCCAACGUUAUGGUGAAGGCAUAGUCAAGGGAGAGGCGAAAGUCACACAAACCGG | 0.00238
GUGCCUUGCGCCGGGAAACCACGCAAGGGAUGGUGUCAAAUUCGGCGAAACCUAAGCGCCCGCCCGGGCGUAUGGCAACGCGGAGCCAAGCUUCGGCGCCUGCGCCGAUGCAGGUGUAGUGACUAGACGGCACCCACCUAAGGCCAACGUUAUGGUGAAGGCAUAGUCAAGGGAGGGGCGAAAGUCACACAAACCGG | 0.0025
GUGCCUUGCGCCGGGAAACCACGCAAGGGAUGGUGUCAAAUUCGGCGAAACCUAAGCGCCCGCCCGGGCGUAUGGCAACGCGGAGCCAAGCUUCGGCGCCUGCGCCGAUGCAGGUGUAGUGACUAGACGGCACCCACCUAAGGCCAACGUUAUGGUGAAGGCAUAGUCGAGGGAGGGGCGAAAGUCACACAAACCGG | 0.00262
GUGCCUUGCGCCGGGAAACCACGCAAGGGAUGGUGUCAAAUUCGGCGAAACCUAAGCGCCCGCCCGGGCGUAUGGCAACGCGGAGCCAAGCUUCGGCGCCUGCGCCGAUGCAGGUGUAGUGACUAGACGGCACCCACCUAAGGCCAACGUUAUGGUGAAGGCAUAGUCGAGGGAGAGGCGAAAGUCACACAAACCGG | 0.00257
GUGCCUUGCGCCGGGAAACCACGCAAGGGAUGGUGUCAAAUUCGGCGAAACCUAAGCGCCCGCCCGGGCGUAUGGCAACGCGGAGCCAAGCUUCGGCGCCUGCGCCGAUGCAGGUGUAGUGACUAGACGGCACCCACCUAAGGCCAACGUUAUGGUGAAGGCAUAGUCGAGGGAGCGGCGAAAGUCACACAAACCGG | 0.00305
GUGCCUUGCGCCGGGAAACCACGCAAGGGAUGGUGUCAAAUUCGGCGAAACCUAAGCGCCCGCCCGGGCGUAUGGCAACGCGGAGCCAAGCUUCGGCGCCUGCGCCGAUGCAGGUGUAGUGACUAGACGGCACCCACCUAAGGCCAACGGUAUGGUGAAGGCAUAGUCAAGGGAGGGGCGAAAGUCACACAAACCGG | 0.00274
GUGCCUUGCGCCGGGAAACCACGCAAGGGAUGGUGUCAAAUUCGGCGAAACCUAAGCGCCCGCCCGGGCGUAUGGCAACGCGGAGCCAAGCUUCGGCGCCUGCGCCGAUGCAGGUGUAGUGACUAGACGGCACCCACCUAAGGCCAACGGUAUGGUGAAGGCAUAGUCAAGGGAGCGGCGAAAGUCACACAAACCGG | 0.00252
GUGCCUUGCGCCGGGAAACCACGCAAGGGAUGGUGUCAAAUUCGGCGAAACCUAAGCGCCCGCCCGGGCGUAUGGCAACGCGGAGCCAAGCUUCGGCGCCUGCGCCGAUGCAGGUGUAGUGACUAGACGGCACCCACCUAAGGCCAACGGUAUGGUGAAGGCAUAGUCAAGGGAGAGGCGAAAGUCACACAAACCGG | 0.00295
GUGCCUUGCGCCGGGAAACCACGCAAGGGAUGGUGUCAAAUUCGGCGAAACCUAAGCGCCCGCCCGGGCGUAUGGCAACGCGGAGCCAAGCUUCGGCGCCUGCGCCGAUGCAGGUGUAGUGACUAGACGGCACCCACCUAAGGCCAACGAUAUGGUGAAGGCAUAGUCCAGGGAGGGGCGAAAGUCACACAAACCGG | 0.00247
GUGCCUUGCGCCGGGAAACCACGCAAGGGAUGGUGUCAAAUUCGGCGAAACCUAAGCGCCCGCCCGGGCGUAUGGCAACGCGGAGCCAAGCUUCGGCGCCUGCGCCGAUGCAGGUGUAGUGACUAGACGGCACCCACCUAAGGCCAACGAUAUGGUGAAGGCAUAGUCCAGGGAGAGGCGAAAGUCACACAAACCGG | 0.00374
GUGCCUUGCGCCGGGAAACCACGCAAGGGAUGGUGUCAAAUUCGGCGAAACCUAAGCGCCCGCCCGGGCGUAUGGCAACGCGGAGCCAAGCUUCGGCGCCUGCGCCGAUGCAGGUGUAGUGACUAGACGGCACCCACCUAAGGCCAACGAUAUGGUGAAGGCAUAGUCCAGGGAGCGGCGAAAGUCACACAAACCGG | 0.00361
GUGCCUUGCGCCGGGAAACCACGCAAGGGAUGGUGUCAAAUUCGGCGAAACCUAAGCGCCCGCCCGGGCGUAUGGCAACGCGGAGCCAAGCUUCGGCGCCUGCGCCGAUGCAGGUGUAGUGACUAGACGGCACCCACCUAAGGCCAACGGUAUGGUGAAGGCAUAGUCGAGGGAGAGGCGAAAGUCACACAAACCGG | 0.00317
GUGCCUUGCGCCGGGAAACCACGCAAGGGAUGGUGUCAAAUUCGGCGAAACCUAAGCGCCCGCCCGGGCGUAUGGCAACGCGGAGCCAAGCUUCGGCGCCUGCGCCGAUGCAGGUGUAGUGACUAGACGGCACCCACCUAAGGCCAACGGUAUGGUGAAGGCAUAGUCGAGGGAGGGGCGAAAGUCACACAAACCGG | 0.00233
GUGCCUUGCGCCGGGAAACCACGCAAGGGAUGGUGUCAAAUUCGGCGAAACCUAAGCGCCCGCCCGGGCGUAUGGCAACGCGGAGCCAAGCUUCGGCGCCUGCGCCGAUGCAGGUGUAGUGACUAGACGGCACCCACCUAAGGCCAACGGUAUGGUGAAGGCAUAGUCGAGGGAGCGGCGAAAGUCACACAAACCGG | 0.00245
